Here are results for three molecules from publication doi:10.1101/755678.

For assay [1], the target named is RagA (TonB dependent transporter, PG_0185) of P. gingivalis W83 (Porphyromonas gingivalis W83). The experiment in a line: cryo-EM structure.
The target is the same in assay [2]. In words: crystal structure.
Assay [3] has as its target RagB from ATCC 33277, mature part, C-terminal His6-tag, expressed in E. coli (Porphyromonas gingivalis ATCC 33277). The experiment in a line: MST.
Assay [4] has as its target RagB from W83, mature part, C-terminal His6-tag, expressed in E. coli (Porphyromonas gingivalis W83). In words: MST.
For assay [5], the target named is RagAB complex from wild-type P. gingivalis W83, 8×His-tag on the C terminus of RagB (Porphyromonas gingivalis W83). The experiment in a line: MST.

For “RagA (TonB dependent transporter, PG_0185) of P. gingivalis W83 (natural protein)”, the stoichiometry N in assay [1] and in assay [2] was 2 each time.

Consider NIFKKNVGFKK [P4 peptide (unlabelled)], for which the Kd in assay [3] turned out to be 70 µM; in assay [4] it was 2000 µM.

Consider KATAEALKKALEEAGAEVELK [P21 peptide (21 residues from the C-terminus of ribosomal protein L7)], for which the dissociation constant (Kd) in assay [3] amounted to 700 µM; in assay [5], 0.4 µM; in assay [4], 2000 µM.

In general, stoichiometry N refers to the number of molecules, sites or subunits per partner or assembly. Broadly, the Kd is a measure of binding affinity in units of concentration.
